According to publication doi:10.1101/2024.12.17.628619 (bioRxiv, 2024):

B1: MBP-AMBRA1^WD40 (residues M1-N204 directly fused to S853-G1044), wild type (domain or fragment, human, UniProt Q9C0C7 1-204, looked up)
chain: MKVVPEKNAVRILWGRERGARAMGAQRLLQELVEDKTRWMKWEGKRVELPDSPRSTFLLAFSPDRTLLASTHVNHNIYITEVKTGKCVHSLIGHRRTPWCVTFHPTISGLIASGCLDGEVRIWDLHGGSESWFTDSNNAIASLAFHPTAQLLLIATANEIHFWDWSRREPFAVVKTASEMERVRLVRFDPLGHYLLTAIVNPSNSNIANTTYRLQWWDFTKFDLPEISNASVNVLVQNCKIYNDASCDISADGQLLAAFIPSSQRGFPDEGILAVYSLAPHNLGEMLYTKRFGPNAISVSLSPMGRYVMVGLASRRILLHPSTEHMVAQVFRLQQAHGGETSMRRVFNVLYPMPADQRRHVSINSARWLPEPGLGLAYGTNKGDLVICRPEALNSG
B2: MBP-AMBRA1^WD40 H75A/R96A (domain or fragment, human, UniProt Q9C0C7 1-204, looked up)
chain: MKVVPEKNAVRILWGRERGARAMGAQRLLQELVEDKTRWMKWEGKRVELPDSPRSTFLLAFSPDRTLLASTHVNANIYITEVKTGKCVHSLIGHRATPWCVTFHPTISGLIASGCLDGEVRIWDLHGGSESWFTDSNNAIASLAFHPTAQLLLIATANEIHFWDWSRREPFAVVKTASEMERVRLVRFDPLGHYLLTAIVNPSNSNIANTTYRLQWWDFTKFDLPEISNASVNVLVQNCKIYNDASCDISADGQLLAAFIPSSQRGFPDEGILAVYSLAPHNLGEMLYTKRFGPNAISVSLSPMGRYVMVGLASRRILLHPSTEHMVAQVFRLQQAHGGETSMRRVFNVLYPMPADQRRHVSINSARWLPEPGLGLAYGTNKGDLVICRPEALNSG
B3: MBP-AMBRA1^WD40 W99R (domain or fragment, human, UniProt Q9C0C7 1-204, looked up)
chain: MKVVPEKNAVRILWGRERGARAMGAQRLLQELVEDKTRWMKWEGKRVELPDSPRSTFLLAFSPDRTLLASTHVNHNIYITEVKTGKCVHSLIGHRRTPRCVTFHPTISGLIASGCLDGEVRIWDLHGGSESWFTDSNNAIASLAFHPTAQLLLIATANEIHFWDWSRREPFAVVKTASEMERVRLVRFDPLGHYLLTAIVNPSNSNIANTTYRLQWWDFTKFDLPEISNASVNVLVQNCKIYNDASCDISADGQLLAAFIPSSQRGFPDEGILAVYSLAPHNLGEMLYTKRFGPNAISVSLSPMGRYVMVGLASRRILLHPSTEHMVAQVFRLQQAHGGETSMRRVFNVLYPMPADQRRHVSINSARWLPEPGLGLAYGTNKGDLVICRPEALNSG
B4: MBP-AMBRA1^WD40 F57A (domain or fragment, human, UniProt Q9C0C7 1-204, looked up)
chain: MKVVPEKNAVRILWGRERGARAMGAQRLLQELVEDKTRWMKWEGKRVELPDSPRSTALLAFSPDRTLLASTHVNHNIYITEVKTGKCVHSLIGHRRTPWCVTFHPTISGLIASGCLDGEVRIWDLHGGSESWFTDSNNAIASLAFHPTAQLLLIATANEIHFWDWSRREPFAVVKTASEMERVRLVRFDPLGHYLLTAIVNPSNSNIANTTYRLQWWDFTKFDLPEISNASVNVLVQNCKIYNDASCDISADGQLLAAFIPSSQRGFPDEGILAVYSLAPHNLGEMLYTKRFGPNAISVSLSPMGRYVMVGLASRRILLHPSTEHMVAQVFRLQQAHGGETSMRRVFNVLYPMPADQRRHVSINSARWLPEPGLGLAYGTNKGDLVICRPEALNSG

The binders below were run against His6-DDB1 (human, UniProt Q16531 1-1140) (assay: SEC + other: negative stain EM).
His6-DDB1, sequence (Q16531 whole entry): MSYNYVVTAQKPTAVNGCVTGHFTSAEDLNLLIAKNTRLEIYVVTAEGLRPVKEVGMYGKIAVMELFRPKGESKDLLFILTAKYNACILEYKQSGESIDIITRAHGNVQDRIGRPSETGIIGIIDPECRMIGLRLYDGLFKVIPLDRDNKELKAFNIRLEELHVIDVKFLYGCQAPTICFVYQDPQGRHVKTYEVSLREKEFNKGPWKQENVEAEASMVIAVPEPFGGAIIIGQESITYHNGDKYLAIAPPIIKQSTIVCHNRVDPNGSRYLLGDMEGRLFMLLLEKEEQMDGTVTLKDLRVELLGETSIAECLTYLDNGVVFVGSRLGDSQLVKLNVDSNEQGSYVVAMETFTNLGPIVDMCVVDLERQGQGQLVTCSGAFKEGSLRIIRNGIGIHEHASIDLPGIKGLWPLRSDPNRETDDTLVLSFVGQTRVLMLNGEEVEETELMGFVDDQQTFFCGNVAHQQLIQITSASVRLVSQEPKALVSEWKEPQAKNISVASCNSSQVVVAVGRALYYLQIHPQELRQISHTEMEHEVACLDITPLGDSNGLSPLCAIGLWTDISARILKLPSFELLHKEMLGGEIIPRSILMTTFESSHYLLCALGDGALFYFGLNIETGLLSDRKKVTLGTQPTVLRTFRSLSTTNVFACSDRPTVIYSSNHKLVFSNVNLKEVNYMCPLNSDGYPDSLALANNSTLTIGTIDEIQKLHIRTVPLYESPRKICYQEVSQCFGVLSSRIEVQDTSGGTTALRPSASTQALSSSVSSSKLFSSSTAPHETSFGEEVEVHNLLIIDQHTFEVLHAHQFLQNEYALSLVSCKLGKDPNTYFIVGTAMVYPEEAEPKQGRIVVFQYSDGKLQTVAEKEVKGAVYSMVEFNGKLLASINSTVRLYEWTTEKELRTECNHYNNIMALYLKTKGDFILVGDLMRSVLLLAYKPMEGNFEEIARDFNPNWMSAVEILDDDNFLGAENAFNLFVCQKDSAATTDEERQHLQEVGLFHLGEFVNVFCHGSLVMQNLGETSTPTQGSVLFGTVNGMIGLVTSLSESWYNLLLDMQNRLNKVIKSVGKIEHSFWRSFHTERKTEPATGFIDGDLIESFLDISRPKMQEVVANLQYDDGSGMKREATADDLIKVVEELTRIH

Binding result, binds:
B1
B2
B3
B4
